Source: US20140087995A1 (published 2014)
Numbered stars: 1 amine (or outer) side, 2 acyl side, 3 side chain; on linkers, the order of the positions; unused ones are H or OH. Bridge positions count the residues as written; N and C are the ends. Side chains are listed from the residue outwards. Ends that are not written are not given here. * marks the point of attachment. C20 diacid = O=C(O)CCCCCCCCCCCCCCCCCCC(=O)*; γGlu = O=C(O)[C@H](CCC(=O)[*:2])N[*:1]

T1: rat calcitonin receptor (rat, UniProt P32214 25-516)
T1 construct: whole, on cells; Used as membranes prepared from the transfected cells; also called rCTR; rCT
T1 sequence (looked up): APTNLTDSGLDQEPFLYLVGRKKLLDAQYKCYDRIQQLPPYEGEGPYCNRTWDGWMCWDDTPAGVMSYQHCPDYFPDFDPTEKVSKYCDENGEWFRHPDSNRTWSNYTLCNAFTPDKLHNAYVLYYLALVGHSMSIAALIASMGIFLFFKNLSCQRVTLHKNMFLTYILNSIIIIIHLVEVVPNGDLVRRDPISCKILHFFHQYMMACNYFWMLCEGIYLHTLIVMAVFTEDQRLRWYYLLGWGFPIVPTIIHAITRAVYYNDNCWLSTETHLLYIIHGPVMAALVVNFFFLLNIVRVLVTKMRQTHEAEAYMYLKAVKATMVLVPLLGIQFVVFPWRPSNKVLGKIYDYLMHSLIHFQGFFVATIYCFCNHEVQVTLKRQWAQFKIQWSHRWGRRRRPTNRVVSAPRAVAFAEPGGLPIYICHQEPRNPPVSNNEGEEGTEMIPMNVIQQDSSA

T2: human calcitonin receptor (human, UniProt P30988 25-474)
T2 construct: whole, on cells; Used as membranes prepared from the transfected cells; also called hCTR; hCT
T2 sequence (looked up): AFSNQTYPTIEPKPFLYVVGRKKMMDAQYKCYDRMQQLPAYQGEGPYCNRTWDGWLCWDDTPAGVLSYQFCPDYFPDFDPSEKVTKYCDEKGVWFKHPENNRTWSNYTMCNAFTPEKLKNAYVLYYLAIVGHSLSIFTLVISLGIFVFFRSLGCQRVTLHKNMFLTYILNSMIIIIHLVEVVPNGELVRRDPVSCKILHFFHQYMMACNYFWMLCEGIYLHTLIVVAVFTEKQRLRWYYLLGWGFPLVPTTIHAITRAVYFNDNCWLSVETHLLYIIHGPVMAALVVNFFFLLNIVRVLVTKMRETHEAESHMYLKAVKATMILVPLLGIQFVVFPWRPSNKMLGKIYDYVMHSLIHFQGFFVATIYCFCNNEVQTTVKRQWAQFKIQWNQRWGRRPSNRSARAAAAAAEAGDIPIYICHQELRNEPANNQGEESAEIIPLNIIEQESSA

B1: N^ε1-[(4S)-4-carboxy-4-(19-carboxynonadecanoylamino)butanoyl]-[His14,Arg17,Pro21,Pro27,His35]-h-amylin (peptide)
peptide: K([γGlu-C20 diacid])CNTATCATQRLAHFLRHSSPNFGAIPSSTNVGSHTY-NH2
modifications: disulfide 2-7; N-terminus assumed
SMILES: CC[C@H](C)[C@H](NC(=O)[C@H](C)NC(=O)CNC(=O)[C@H](Cc1ccccc1)NC(=O)[C@H](CC(N)=O)NC(=O)[C@@H]1CCCN1C(=O)[C@H](CO)NC(=O)[C@H](CO)NC(=O)[C@H](Cc1c[nH]cn1)NC(=O)[C@H](CCCNC(=N)N)NC(=O)[C@H](CC(C)C)NC(=O)[C@H](Cc1ccccc1)NC(=O)[C@H](Cc1c[nH]cn1)NC(=O)[C@H](C)NC(=O)[C@H](CC(C)C)NC(=O)[C@H](CCCNC(=N)N)NC(=O)[C@H](CCC(N)=O)NC(=O)[C@@H](NC(=O)[C@H](C)NC(=O)[C@@H]1CSSC[C@H](NC(=O)[C@@H](N)CCCCNC(=O)CC[C@H](NC(=O)CCCCCCCCCCCCCCCCCCC(=O)O)C(=O)O)C(=O)N[C@@H](CC(N)=O)C(=O)N[C@@H]([C@@H](C)O)C(=O)N[C@@H](C)C(=O)N[C@@H]([C@@H](C)O)C(=O)N1)[C@@H](C)O)C(=O)N1CCC[C@H]1C(=O)N[C@@H](CO)C(=O)N[C@@H](CO)C(=O)N[C@H](C(=O)N[C@@H](CC(N)=O)C(=O)N[C@H](C(=O)NCC(=O)N[C@@H](CO)C(=O)N[C@@H](Cc1c[nH]cn1)C(=O)N[C@H](C(=O)N[C@@H](Cc1ccc(O)cc1)C(N)=O)[C@@H](C)O)C(C)C)[C@@H](C)O
notes: Analogue of human amylin; disulfide and C-terminal amide as told for h-amylin; also called compound 66
B2: N^ε1-[(4S)-4-carboxy-4-[[(4S)-4-carboxy-4-(19-carboxynonadecanoylamino)butanoyl]amino]butanoyl]-[Glu14,Arg17,Pro21,Pro27,Arg34]-h-amylin (peptide)
peptide: K([γGlu-γGlu-C20 diacid])CNTATCATQRLAEFLRHSSPNFGAIPSSTNVGRNTY-NH2
modifications: disulfide 2-7; N-terminus assumed
SMILES: CC[C@H](C)[C@H](NC(=O)[C@H](C)NC(=O)CNC(=O)[C@H](Cc1ccccc1)NC(=O)[C@H](CC(N)=O)NC(=O)[C@@H]1CCCN1C(=O)[C@H](CO)NC(=O)[C@H](CO)NC(=O)[C@H](Cc1c[nH]cn1)NC(=O)[C@H](CCCNC(=N)N)NC(=O)[C@H](CC(C)C)NC(=O)[C@H](Cc1ccccc1)NC(=O)[C@H](CCC(=O)O)NC(=O)[C@H](C)NC(=O)[C@H](CC(C)C)NC(=O)[C@H](CCCNC(=N)N)NC(=O)[C@H](CCC(N)=O)NC(=O)[C@@H](NC(=O)[C@H](C)NC(=O)[C@@H]1CSSC[C@H](NC(=O)[C@@H](N)CCCCNC(=O)CC[C@H](NC(=O)CC[C@H](NC(=O)CCCCCCCCCCCCCCCCCCC(=O)O)C(=O)O)C(=O)O)C(=O)N[C@@H](CC(N)=O)C(=O)N[C@@H]([C@@H](C)O)C(=O)N[C@@H](C)C(=O)N[C@@H]([C@@H](C)O)C(=O)N1)[C@@H](C)O)C(=O)N1CCC[C@H]1C(=O)N[C@@H](CO)C(=O)N[C@@H](CO)C(=O)N[C@H](C(=O)N[C@@H](CC(N)=O)C(=O)N[C@H](C(=O)NCC(=O)N[C@@H](CCCNC(=N)N)C(=O)N[C@@H](CC(N)=O)C(=O)N[C@H](C(=O)N[C@@H](Cc1ccc(O)cc1)C(N)=O)[C@@H](C)O)C(C)C)[C@@H](C)O
notes: Analogue of human amylin; disulfide and C-terminal amide as told for h-amylin; also called compound 88
B3: N^ε1-[(4S)-4-carboxy-4-[[(4S)-4-carboxy-4-(19-carboxynonadecanoylamino)butanoyl]amino]butanoyl]-[Glu14,Arg17,Pro21,Pro27,Arg35]-h-amylin (peptide)
peptide: K([γGlu-γGlu-C20 diacid])CNTATCATQRLAEFLRHSSPNFGAIPSSTNVGSRTY-NH2
modifications: disulfide 2-7; N-terminus assumed
SMILES: CC[C@H](C)[C@H](NC(=O)[C@H](C)NC(=O)CNC(=O)[C@H](Cc1ccccc1)NC(=O)[C@H](CC(N)=O)NC(=O)[C@@H]1CCCN1C(=O)[C@H](CO)NC(=O)[C@H](CO)NC(=O)[C@H](Cc1c[nH]cn1)NC(=O)[C@H](CCCNC(=N)N)NC(=O)[C@H](CC(C)C)NC(=O)[C@H](Cc1ccccc1)NC(=O)[C@H](CCC(=O)O)NC(=O)[C@H](C)NC(=O)[C@H](CC(C)C)NC(=O)[C@H](CCCNC(=N)N)NC(=O)[C@H](CCC(N)=O)NC(=O)[C@@H](NC(=O)[C@H](C)NC(=O)[C@@H]1CSSC[C@H](NC(=O)[C@@H](N)CCCCNC(=O)CC[C@H](NC(=O)CC[C@H](NC(=O)CCCCCCCCCCCCCCCCCCC(=O)O)C(=O)O)C(=O)O)C(=O)N[C@@H](CC(N)=O)C(=O)N[C@@H]([C@@H](C)O)C(=O)N[C@@H](C)C(=O)N[C@@H]([C@@H](C)O)C(=O)N1)[C@@H](C)O)C(=O)N1CCC[C@H]1C(=O)N[C@@H](CO)C(=O)N[C@@H](CO)C(=O)N[C@H](C(=O)N[C@@H](CC(N)=O)C(=O)N[C@H](C(=O)NCC(=O)N[C@@H](CO)C(=O)N[C@@H](CCCNC(=N)N)C(=O)N[C@H](C(=O)N[C@@H](Cc1ccc(O)cc1)C(N)=O)[C@@H](C)O)C(C)C)[C@@H](C)O
notes: Analogue of human amylin; disulfide and C-terminal amide as told for h-amylin; also called compound 89
B4: N^ε1-[(4S)-4-carboxy-4-[[(4S)-4-carboxy-4-(19-carboxynonadecanoylamino)butanoyl]amino]butanoyl]-[Glu14,Arg17,Pro21,Pro27,His34]-h-amylin (peptide)
peptide: K([γGlu-γGlu-C20 diacid])CNTATCATQRLAEFLRHSSPNFGAIPSSTNVGHNTY-NH2
modifications: disulfide 2-7; N-terminus assumed
SMILES: CC[C@H](C)[C@H](NC(=O)[C@H](C)NC(=O)CNC(=O)[C@H](Cc1ccccc1)NC(=O)[C@H](CC(N)=O)NC(=O)[C@@H]1CCCN1C(=O)[C@H](CO)NC(=O)[C@H](CO)NC(=O)[C@H](Cc1c[nH]cn1)NC(=O)[C@H](CCCNC(=N)N)NC(=O)[C@H](CC(C)C)NC(=O)[C@H](Cc1ccccc1)NC(=O)[C@H](CCC(=O)O)NC(=O)[C@H](C)NC(=O)[C@H](CC(C)C)NC(=O)[C@H](CCCNC(=N)N)NC(=O)[C@H](CCC(N)=O)NC(=O)[C@@H](NC(=O)[C@H](C)NC(=O)[C@@H]1CSSC[C@H](NC(=O)[C@@H](N)CCCCNC(=O)CC[C@H](NC(=O)CC[C@H](NC(=O)CCCCCCCCCCCCCCCCCCC(=O)O)C(=O)O)C(=O)O)C(=O)N[C@@H](CC(N)=O)C(=O)N[C@@H]([C@@H](C)O)C(=O)N[C@@H](C)C(=O)N[C@@H]([C@@H](C)O)C(=O)N1)[C@@H](C)O)C(=O)N1CCC[C@H]1C(=O)N[C@@H](CO)C(=O)N[C@@H](CO)C(=O)N[C@H](C(=O)N[C@@H](CC(N)=O)C(=O)N[C@H](C(=O)NCC(=O)N[C@@H](Cc1c[nH]cn1)C(=O)N[C@@H](CC(N)=O)C(=O)N[C@H](C(=O)N[C@@H](Cc1ccc(O)cc1)C(N)=O)[C@@H](C)O)C(C)C)[C@@H](C)O
notes: Analogue of human amylin; disulfide and C-terminal amide as told for h-amylin; also called compound 87
B5: N^ε1-[(4S)-4-carboxy-4-[[(4S)-4-carboxy-4-(19-carboxynonadecanoylamino)butanoyl]amino]butanoyl]-[Arg17,Pro21,Pro27,His34]-h-amylin (peptide)
peptide: K([γGlu-γGlu-C20 diacid])CNTATCATQRLANFLRHSSPNFGAIPSSTNVGHNTY-NH2
modifications: disulfide 2-7; N-terminus assumed
SMILES: CC[C@H](C)[C@H](NC(=O)[C@H](C)NC(=O)CNC(=O)[C@H](Cc1ccccc1)NC(=O)[C@H](CC(N)=O)NC(=O)[C@@H]1CCCN1C(=O)[C@H](CO)NC(=O)[C@H](CO)NC(=O)[C@H](Cc1c[nH]cn1)NC(=O)[C@H](CCCNC(=N)N)NC(=O)[C@H](CC(C)C)NC(=O)[C@H](Cc1ccccc1)NC(=O)[C@H](CC(N)=O)NC(=O)[C@H](C)NC(=O)[C@H](CC(C)C)NC(=O)[C@H](CCCNC(=N)N)NC(=O)[C@H](CCC(N)=O)NC(=O)[C@@H](NC(=O)[C@H](C)NC(=O)[C@@H]1CSSC[C@H](NC(=O)[C@@H](N)CCCCNC(=O)CC[C@H](NC(=O)CC[C@H](NC(=O)CCCCCCCCCCCCCCCCCCC(=O)O)C(=O)O)C(=O)O)C(=O)N[C@@H](CC(N)=O)C(=O)N[C@@H]([C@@H](C)O)C(=O)N[C@@H](C)C(=O)N[C@@H]([C@@H](C)O)C(=O)N1)[C@@H](C)O)C(=O)N1CCC[C@H]1C(=O)N[C@@H](CO)C(=O)N[C@@H](CO)C(=O)N[C@H](C(=O)N[C@@H](CC(N)=O)C(=O)N[C@H](C(=O)NCC(=O)N[C@@H](Cc1c[nH]cn1)C(=O)N[C@@H](CC(N)=O)C(=O)N[C@H](C(=O)N[C@@H](Cc1ccc(O)cc1)C(N)=O)[C@@H](C)O)C(C)C)[C@@H](C)O
notes: Analogue of human amylin; disulfide and C-terminal amide as told for h-amylin; also called compound 86

biological target: T1, rat calcitonin receptor; experiment: SPA competition with 125I-calcitonin, membranes with rat calcitonin receptor (Assay VIII)

Row | Binder | IC50 [nM]
1 | B1 | 20.8
2 | B2 | 196
3 | B3 | 115
4 | B4 | 94.5
5 | B5 | 352

biological target: T1, rat calcitonin receptor; experiment: ratio of binding IC50 at rat calcitonin receptor to IC50 at rat amylin receptor (reference)

Row | Binder | Ratio rCT/rAmylin binding
6 | B1 | 35.8
7 | B2 | 84.9
8 | B3 | 48.8
9 | B4 | 45.6
10 | B5 | 126

biological target: T2, human calcitonin receptor; experiment: ratio of binding IC50 at human calcitonin receptor to IC50 at human amylin receptor (reference)
In short: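 Competition binding by SPA uses membrane preparations (35 ng/μL final) in pH 7.4 Hepes buffer with 1 mM CaCl2 and 5 mM MgCl₂. Incubation lasts 120 min at 25° C, and IC₅₀ comes from one-site fitting.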

Row | Binder | Ratio hCT/hAmylin binding
11 | B1 | 45.5
12 | B2 | 46.5
13 | B3 | 28
14 | B4 | 35.6
15 | B5 | 159
